Patent US20210347873A1 (SHANGHAI PHARMAEXPLORER, published 2021)

Columns and labels:
[1] = molecular target: human BLyS (full length, arginine to histidine at position 132) on CHO-K1 cells (human) (UniProt Q9Y275); experiment: flow cytometry, CHO-K1 hBLyS cells, antibody 66.7 nM
[2] = molecular target: biotinylated hBLyS-ECD (human) (UniProt Q9Y275); experiment: ELISA, biotinylated hBLyS-ECD captured on streptavidin; antibody 0.107 nM
[3] = molecular target: biotinylated hBLyS-ECD (human) (UniProt Q9Y275); experiment: blocking ELISA: biotinylated hBLyS-ECD on coated BAFF R, antibody 20 nM
[4] = molecular target: human BLyS (full length, arginine to histidine at position 132) on CHO-K1 cells (human) (UniProt Q9Y275); experiment: flow cytometry, CHO-K1 hBLyS cells, antibody 0 nM
[5] = molecular target: biotinylated hBLyS-ECD (human) (UniProt Q9Y275); experiment: blocking ELISA: biotinylated hBLyS-ECD on coated BAFF R, antibody 0.8 nM
[6] = molecular target: cynomolgus BLyS (full length, arginine to histidine at position 132) on CHO-K1 cells (cynomolgus); experiment: flow cytometry, CHO-K1 cynoBLyS cells, antibody 13.3 nM
[7] = molecular target: biotinylated hBLyS-ECD (human) (UniProt Q9Y275); experiment: ELISA, biotinylated hBLyS-ECD captured on streptavidin; antibody 0.534 nM
[8] = molecular target: biotinylated hBLyS-ECD (human) (UniProt Q9Y275); experiment: ELISA, biotinylated hBLyS-ECD captured on streptavidin; antibody 2.67 nM
[9] = molecular target: biotinylated hBLyS-ECD (human) (UniProt Q9Y275); experiment: blocking ELISA: biotinylated hBLyS-ECD on coated BAFF R, antibody 100 nM
biotinylated hBLyS-ECD [10] = molecular target: T1, biotinylated hBLyS-ECD (human, UniProt Q9Y275 134-285, biotinylated with Biotin-X-X-NHS (molar ratio 7:1); sites not stated); experiment: BAFF R-coated ELISA, biotinylated hBLyS-ECD bound in presence of antibody 4 nM
T1 construct: also called biotinylated immunogen; biotinylated hBLvS-ECD

biotinylated hBLyS-ECD [11] = molecular target: T1, biotinylated hBLyS-ECD; experiment: ELISA on captured biotinylated hBLyS-ECD; antibody 66.7 nM
biotinylated hBLyS-ECD [12] = molecular target: T1, biotinylated hBLyS-ECD; experiment: ELISA on captured biotinylated hBLyS-ECD; antibody 0.534 nM
[13] = molecular target: T2, extracellular domain of human BLyS protein (hBLyS-ECD), His-tagged, Ala134-Leu285 (human, UniProt Q9Y275 134-285); experiment: SPR (Biacore), antibody captured by anti-human Fc, hBLyS-ECD as analyte
T2 construct: Expressed in HEK293 cells and purified on a Ni column; also called immunogen

biotinylated hBLyS-ECD [14] = molecular target: T1, biotinylated hBLyS-ECD; experiment: ELISA on captured biotinylated hBLyS-ECD; antibody 0.107 nM
biotinylated hBLyS-ECD [15] = molecular target: T1, biotinylated hBLyS-ECD; experiment: ELISA on captured biotinylated hBLyS-ECD; antibody 13.3 nM
biotinylated hBLyS-ECD [16] = molecular target: T1, biotinylated hBLyS-ECD; experiment: ELISA on captured biotinylated hBLyS-ECD; antibody 0.534 nM; remark: listed apart in the source
biotinylated hBLyS-ECD [17] = molecular target: T1, biotinylated hBLyS-ECD; experiment: ELISA on captured biotinylated hBLyS-ECD; antibody 13.3 nM; remark: listed apart in the source
biotinylated hBLyS-ECD [18] = molecular target: T1, biotinylated hBLyS-ECD; experiment: ELISA on captured biotinylated hBLyS-ECD; antibody 0.00427 nM
biotinylated hBLyS-ECD [19] = molecular target: T3, biotinylated hBLyS-ECD (human, UniProt Q9Y275 134-285, biotinylated with Biotin-X-X-NHS (molar ratio 7:1), sites not stated); experiment: ELISA: biotinylated hBLyS-ECD captured on streptavidin, antibody titrated, HRP secondary antibody [label printed at the top of D00004]
T3 construct: The hBLyS-ECD of Embodiment 1 after biotinylation (Embodiment 2); also called biotinylated immunogen; BLyS protein; not shown: His tag of the pCPC vector
Description: Streptavidin was first diluted to a final concentration of 1.0 μg/mL with PBS, and then 50 μL of diluted streptavidin per well was aliquoted into 96-well ELISA plate, which was subsequently sealed with plastic film and incubated at 4° C. overnight. On the next day the plate was washed four times with the plate washing buffer [PBS buffer containing 0.05% (v/v) Tween20] and added with the blocking solution [PBS buffer containing 0.05% (v/v) Tween20 and 1% (w/w) BSA] and blocked for 2 hours at 37° C. The blocking solution was removed, the biotinylated hBLyS-ECD prepared in Embodiment 2 was diluted with PBS to a final concentration of 50 ng/mL and then aliquoted into the 96-well ELISA plate at 50 μL per well and incubated for 1 hour at 37° C. After rinsing the plate four times with the plate washing buffer [PBS buffer containing 0.05% (v/v) Tween20], 100 μl of the purified lead antibody harvested in Embodiment 1 and 2 was pipetted into each well. After incubation for 1 hour at 37° C., the plate was rinsed four times with the plate washing buffer [PBS buffer containing 0.05% (v/v) Tween20]. HRP-labeled (horseradish peroxidase) secondary antibody (purchased from Sigma) was added in and incubated at 37° C. for 1 hour. The plate was then rinsed four times with the plate washing buffer [PBS buffer containing 0.05% (v/v) Tween20]. 100 μL of TMB substrate was aliquoted into each well and after incubation for 5 minutes at room temperature, 100 μL of stop solution (1.0 N HCl) was aliquoted into each well. A₄₅₀ₙₘ values were read via an ELISA plate reader (SpectraMax M5e purchased from Molecular Devices) and the results were shown in FIGS. 5A-5B and Table 10.

human BLyS (full length, arginine to histidine at position 132) on CHO-K1 cells (human), sequence (Q9Y275 whole entry R130H, the tested form may be a part): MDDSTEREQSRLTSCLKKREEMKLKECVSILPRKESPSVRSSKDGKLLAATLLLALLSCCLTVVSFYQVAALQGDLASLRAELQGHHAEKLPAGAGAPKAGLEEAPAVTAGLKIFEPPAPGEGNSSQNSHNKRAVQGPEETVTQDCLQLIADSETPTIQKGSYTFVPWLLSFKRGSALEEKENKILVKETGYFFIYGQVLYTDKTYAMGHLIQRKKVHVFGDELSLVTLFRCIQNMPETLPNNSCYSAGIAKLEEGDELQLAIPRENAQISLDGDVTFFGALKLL

| Molecule | MFI [1] [MFI] | OD450 nm [2] | OD450 nm [3] [OD450 nm] | MFI [4] [MFI] | OD450 nm [5] [OD450 nm] | MFI [6] [MFI] | OD450 nm [7] | OD450 nm [8] | OD450 nm [9] [OD450 nm] | OD450 nm (biotinylated hBLyS-ECD [10]) [OD450 nm] | OD450 nm (biotinylated hBLyS-ECD [11]) [OD450 nm] | OD450 nm (biotinylated hBLyS-ECD [12]) [OD450 nm] | Kd [13] [nM] | koff [13] [s⁻¹] | kon [13] [M⁻¹ s⁻¹] | OD450 nm (biotinylated hBLyS-ECD [14]) [OD450 nm] | OD450 nm (biotinylated hBLyS-ECD [15]) [OD450 nm] | OD450 nm (biotinylated hBLyS-ECD [16]) [OD450 nm] | OD450 nm (biotinylated hBLyS-ECD [17]) [OD450 nm] | OD450 nm (biotinylated hBLyS-ECD [18]) [OD450 nm] | also measured |
| --- | --- | --- | --- | --- | --- | --- | --- | --- | --- | --- | --- | --- | --- | --- | --- | --- | --- | --- | --- | --- | --- |
| mIgG Control (antibody) | 33.6 | 0.0562 | 1.36 | 30.3 | 1.4 | 20.7 | 0.0594 | 0.0659 | 1.3 |  |  |  |  |  |  |  |  |  |  |  |  |
| c8E7D9C7F5 (antibody, V domains shown, also called chimeric antibody c8E7D9C7F5) VH: QVQLQQSGVELARPGASVKLSCKASGYTFTSYGISWVKQRTGQALEWIGEIYPRSGNTYYNEKFKGKATLTADKSSSTAYMELRSLTSEDSAVYFCARSGPITTLVATDYGMDYWGQGTSVTVSS VL: DIVLTQSPASLAVSLGQRATISCRASKSVSTSSYSYMHWYQQKPGQPPKLLIKFASNLESGVPARFSGSGSGTDFTLNIHPVEEEDAATYYCQHSREFPYTFGGGTKLEIK |  |  |  |  |  |  |  |  |  | 1.04 | 2.32 | 1.97 | 2.38 | 0.00109 | 456000 | 1.28 | 2.37 | 3.07 | 3.32 | 0.176 |  |
| 97A3C2H4 (antibody, V domains shown, Mouse hybridoma antibody purified on Protein G) VH: EVKLVESGGGLVQPGGSLKLSCAASGFTFSTYTMSWVRQTPEKRLEWVAYISYGGGSTSYPDTVKGRFTISRDNAKNTLYLQMSSLKSEDTAIYYCTRHVTVVENSMDYWGQGTSVTVSS VL: DILLTQSPDILSVSPGERVSFSCRASQSIGTSIHWYQQRTNGSPRLLIKYVSESFSGTPSRFSGSGSGTAFTLTINSVESEDIADYYCQQTHSWPWTFGGGTKLEIK |  |  |  |  |  |  |  |  |  |  |  |  |  |  |  |  |  |  |  |  | EC50 (read off the curve) (biotinylated hBLyS-ECD [19]): ~0.2 nM |
| 111D10D6G3 (antibody, V domains shown, Mouse hybridoma antibody purified on Protein G) VH: QVQLQQPGAELVKPGASVKMSCKASGYTFTRHWITWVKQRPGQGLEWIGDIFPGSGSINYNEKFKSEATLTVEKSSSTAYMQLSSLTSEDSAVYYCARGDVDVWGTGTTVTVSS VL: DIQMTQSPSSLSASLGERVSLTCRASQEIRGYLSWLQQKPNGTIKRLIYAASTLDSGVPKRFSATRSGSDFSLTISSLESEDFADYYCLQYASYPFTFGSGTKLEIK |  |  |  |  |  |  |  |  |  |  |  |  |  |  |  |  |  |  |  |  | EC50 (read off the curve) (biotinylated hBLyS-ECD [19]): ~0.2 nM |

Now from value to molecule, other results behind:

| MFI [1] [MFI] | OD450 nm [2] | OD450 nm [3] [OD450 nm] | MFI [4] [MFI] | OD450 nm [5] [OD450 nm] | MFI [6] [MFI] | OD450 nm [7] | OD450 nm [8] | OD450 nm [9] [OD450 nm] | OD450 nm (biotinylated hBLyS-ECD [10]) [OD450 nm] | OD450 nm (biotinylated hBLyS-ECD [11]) [OD450 nm] | OD450 nm (biotinylated hBLyS-ECD [12]) [OD450 nm] | Kd [13] [nM] | koff [13] [s⁻¹] | kon [13] [M⁻¹ s⁻¹] | OD450 nm (biotinylated hBLyS-ECD [14]) [OD450 nm] | OD450 nm (biotinylated hBLyS-ECD [15]) [OD450 nm] | OD450 nm (biotinylated hBLyS-ECD [16]) [OD450 nm] | OD450 nm (biotinylated hBLyS-ECD [17]) [OD450 nm] | OD450 nm (biotinylated hBLyS-ECD [18]) [OD450 nm] | Molecule | also measured |
| --- | --- | --- | --- | --- | --- | --- | --- | --- | --- | --- | --- | --- | --- | --- | --- | --- | --- | --- | --- | --- | --- |
| 52 | 0.0905 | 1.06 | 27.2 | 1.14 | 26.7 | 0.0916 | 0.0956 | 1.22 |  |  |  |  |  |  |  |  |  |  |  | hIgG Control (antibody) |  |
|  |  |  |  |  |  |  |  |  | 1.07 | 2.41 | 1.91 | 0.446 | 7.34e-05 | 165000 | 1.19 | 2.34 | 3.26 | 3.33 | 0.25 | c97A3C2H4 (antibody, V domains shown, also called chimeric antibody c97A3C2H4) VH: EVKLVESGGGLVQPGGSLKLSCAASGFTFSTYTMSWVRQTPEKRLEWVAYISYGGGSTSYPDTVKGRFTISRDNAKNTLYLQMSSLKSEDTAIYYCTRHVTVVENSMDYWGQGTSVTVSS VL: DILLTQSPDILSVSPGERVSFSCRASQSIGTSIHWYQQRTNGSPRLLIKYVSESFSGTPSRFSGSGSGTAFTLTINSVESEDIADYYCQQTHSWPWTFGGGTKLEIK |  |
